Assay results published in patent US12385055B2, “Compositions and methods for production of salidroside, icariside D2, and precursors of salidroside and icariside D2” (Whitehead Institute for Biomedical Research, priority 2017, dated 2025).

Tests used:
[1] = 4-HPAA reductase activity assay; format: biochemical; details: 5 mM 4-HPAA, 10 mM NADPH, five-minute time point
Protocol: The phenylacetaldehyde reductase activity assays using Rr4HPAR1 and RrPAR2 were carried out in 200 μL reaction buffer (50 mM Tris, pH 8.0) at the presence of 2 mM phenylacetaldehyde, 5 mM NADPH and 5 μg of recombinant enzyme. The reactions were incubated at 30° C. for various time points, quenched with an equal volume of 0.8 M formic acid, and extracted by 100 μL of ethyl acetate. The organic phase was then analyzed by gas chromatography-mass spectrometry (GC-MS) using an 5% Phenyl Methyl Silox column (30 m×250 m×0.25 m, Agilent) with a temperature gradient as follows: 0-1 min 45° C., 4-13.33 min 45-185° C. The quadrupole MS was set to EI mode, electron energy at 70 eV, MS-source temperature at 230° C., MS-quad temperature at 150° C., scan mass range at 50-300 m/z and SIM for 120 m/z and 122 m/z. EI-MS spectra were compared against analytical standards. The 4-HPAA reductase activity assays were carried out in 100 μL of 50 mM Tris pH 8.0 with the addition of 5 mM 4-HPAA, 10 mM NADPH and 0.2 μg of Rr4HPAR1 or […] of Rr4HPAR2. […] The reaction mixture was then centrifuged and analyzed by LC-MS. […] Product formation was measured using select ion monitoring in positive mode for a centroid center mass of 121.065 with a scan width of 0.002. The specific activity was determined at a five-minute reaction time point, and quantified against a standard curve of tyrosol.

[2] = Phenylacetaldehyde reductase activity assay; format: biochemical; details: NADPH as co-substrate
Protocol: FIG. 15 is a chromatogram showing the enzymatic reduction of phenylacetaldehyde to phenylethyl alcohol by Rr4HPAR1 and Rr4HPAR2. Chromatogram of positive ion mode metabolites between 50 and 300 m/z show the depletion of phenylacetaldehyde and production of phenylethyl alcohol when exposed to NADPH and Rr4HPAR1 or RrPAR2. Reactions were carried out in 200 μL 50 mM Tris, pH 8.0 in the presence of 2 mM phenylacetaldehyde, 5 mM NADPH and 50 μg of recombinant enzyme. The reactions were incubated at 30° C. for 25 minutes prior to quenching with 200 μL of 0.8 M formic acid, extracted with 100 μL of ethyl acetate and analyzed by gas chromatography-mass spectrometry. Phenylethyl alcohol was verified by comparison to an authentic standard.
The phenylacetaldehyde reductase activity assays using Rr4HPAR1 and RrPAR2 were carried out in 200 μL reaction buffer (50 mM Tris, pH 8.0) at the presence of 2 mM phenylacetaldehyde, 5 mM NADPH and 5 μg of recombinant enzyme. […] The organic phase was then analyzed by gas chromatography-mass spectrometry (GC-MS) using an 5% Phenyl Methyl Silox column (30 m×250 m×0.25 m, Agilent) with a temperature gradient as follows: 0-1 min 45° C., 4-13.33 min 45-185° C. […] The reaction mixture was then centrifuged and analyzed by LC-MS. […] Product formation was measured using select ion monitoring in positive mode for a centroid center mass of 121.065 with a scan width of 0.002. […]

For “Rr4HPAR1: R. rosea 4-hydroxyphenylacetaldehyde reductase, reduces 4-HPAA to tyrosol”, the “specific activity towards 4-HPAA” value [1] was 6.9 µmol/min/mg and the “reduction of phenylacetaldehyde to phenylethanol” value [2] was “higher activity”.
